Data published in patent publication US20230364254A1, “METHODS FOR TREATING CANCERS WITH ANTIBODY DRUG CONJUGATES (ADC) THAT BIND TO 191P4D12 PROTEINS” (priority 2020, published 2023).

Tested on: patients with locally advanced or metastatic urothelial cancer
Assay: Same phase 2 study: safety (adverse events, NCI CTCAE v4.03)
Format: in vivo, human
Text: Safety assessments will be based on the information collected through the safety surveillance process and will include the data from recorded adverse events (AEs) including SAEs, recording of concomitant medication, physical examination findings, cardiac monitoring, and laboratory tests.
The assessment of safety during the course of this study will consist of the surveillance and recording of AEs including SAEs, recording of concomitant medication, and measurements of protocol-specified physical examination findings, cardiac monitoring, and laboratory tests.
AE severity should be graded using the National Cancer Institute's Common Terminology Criteria for Adverse Events (NCI CTCAE), Version 4.03. These criteria are provided in the study manual.
An overview of AEs will provide a tabulation of the incidence of all AEs, treatment-emergent AEs, treatment-related AEs, Grade 3 and higher AEs. SAEs, treatment-related SAEs, deaths, and AEs leading to study treatment discontinuation. Adverse events will be defined as treatment emergent if they are newly occurring or worsened following study treatment.
AEs will be classified by system organ class and preferred tem using the Medical Dictionary for Regulatory Activities (MedDRA) and graded using NCI CTCAE, Version 4.03.
The incidence of AEs will be summarized by system organ class, preferred term, severity and relationship to study drug. In the event of multiple occurrences of the same AE in one patient, the AE will be counted once as the occurrence for the maximum grade. AEs leading to premature discontinuation of study drug will be summarized and listed in the same manner.

[1] = Total (N = 214), count (percent)
[2] = treatment-related TEAEs of interest
[3] = treatment-related TEAEs of interest, as of last follow-up
[4] = treatment-related TEAEs of interest, enfortumab vedotin 1.25 mg/kg, patients with locally advanced or metastatic urothelial cancer
[5] = treatment-related TEAEs of interest, most occurred in Cycle 1

Substance: enfortumab vedotin: Nectin-4 directed ADC: fully human anti-nectin-4 IgG1 kappa antibody (AGS-22C3) conjugated to MMAE via protease-cleavable maleimidocaproyl valine-citrulline linker
- Treatment-related AE leading to discontinuation: Multiple organ dysfunction syndrome (Total (N = 214)): 1 (0.5) n (%)
- Treatment-related AE leading to discontinuation: Muscular weakness (Total (N = 214)): 1 (0.5) n (%)
- Treatment-related AE leading to discontinuation: Overall (Total (N = 214)): 29 (13.6) n (%)
- Treatment-related AE leading to discontinuation: Peripheral motor neuropathy (Total (N = 214)): 1 (0.5) n (%)
- Treatment-related AE leading to discontinuation: Peripheral sensory neuropathy (Total (N = 214)): 12 (5.6) n (%)
- Treatment-related AE leading to discontinuation: Pneumonitis (Total (N = 214)): 1 (0.5) n (%)
- Treatment-related AE leading to discontinuation: Stevens-Johnson syndrome (Total (N = 214)): 1 (0.5) n (%)
- Treatment-related TEAEs (Total (N = 214)): 203 (94.9) n (%)
- Treatment-related TEAEs (all grades): Alopecia (Total (N = 214)): 107 (50.0) n (%)
- Treatment-related TEAEs (all grades): Anaemia (Total (N = 214)): 49 (22.9) n (%)
- Treatment-related TEAEs (all grades): Aspartate aminotransferase increased (Total (N = 214)): 24 (11.2) n (%)
- Treatment-related TEAEs (all grades): Decreased appetite (Total (N = 214)): 84 (39.3) n (%)
- Treatment-related TEAEs (all grades): Diarrhoea (Total (N = 214)): 61 (28.5) n (%)
- Treatment-related TEAEs (all grades): Dry eye (Total (N = 214)): 36 (16.8) n (%)
- Treatment-related TEAEs (all grades): Dry skin (Total (N = 214)): 46 (21.5) n (%)
- Treatment-related TEAEs (all grades): Dysgeusia (Total (N = 214)): 71 (33.2) n (%)
- Treatment-related TEAEs (all grades): Fatigue (Total (N = 214)): 92 (43.0) n (%)
- Treatment-related TEAEs (all grades): Lacrimation increased (Total (N = 214)): 30 (14.0) n (%)
- Treatment-related TEAEs (all grades): Nausea (Total (N = 214)): 70 (32.7) n (%)
- Treatment-related TEAEs (all grades): Neutropenia (Total (N = 214)): 24 (11.2) n (%)
- Treatment-related TEAEs (all grades): Oedema peripheral (Total (N = 214)): 25 (11.7) n (%)
- Treatment-related TEAEs (all grades): Overall (Total (N = 214)): 203 (94.9) n (%)
- Treatment-related TEAEs (all grades): Peripheral sensory neuropathy (Total (N = 214)): 92 (43.0) n (%)
- Treatment-related TEAEs (all grades): Pruritus (Total (N = 214)): 59 (27.6) n (%)
- Treatment-related TEAEs (all grades): Rash maculo-papular (Total (N = 214)): 55 (25.7) n (%)
- Treatment-related TEAEs (all grades): Vomiting (Total (N = 214)): 26 (12.1) n (%)
- Treatment-related TEAEs (all grades): Weight decreased (Total (N = 214)): 52 (24.3) n (%)
- Treatment-related TEAEs leading to death (Total (N = 214)): 3 (1.4) n (%)
- Treatment-related TEAEs leading to treatment discontinuation (Total (N = 214)): 29 (13.6) n (%)
- Treatment-related TEAEs ≥Grade 3: Acute kidney injury (Total (N = 214)): 5 (2.3) n (%)
- Treatment-related TEAEs ≥Grade 3: Amylase increased (Total (N = 214)): 6 (2.8) n (%)
- Treatment-related TEAEs ≥Grade 3: Anaemia (Total (N = 214)): 14 (6.5) n (%)
- Treatment-related TEAEs ≥Grade 3: Aspartate aminotransferase increased (Total (N = 214)): 6 (2.8) n (%)
- Treatment-related TEAEs ≥Grade 3: Decreased appetite (Total (N = 214)): 6 (2.8) n (%)
- Treatment-related TEAEs ≥Grade 3: Diarrhoea (Total (N = 214)): 8 (3.7) n (%)
- Treatment-related TEAEs ≥Grade 3: Fatigue (Total (N = 214)): 14 (6.5) n (%)
- Treatment-related TEAEs ≥Grade 3: Febrile neutropenia (Total (N = 214)): 6 (2.8) n (%)
- Treatment-related TEAEs ≥Grade 3: Hyperglycaemia (Total (N = 214)): 10 (4.7) n (%)
- Treatment-related TEAEs ≥Grade 3: Hyponatraemia (Total (N = 214)): 6 (2.8) n (%)
- Treatment-related TEAEs ≥Grade 3: Lipase increased (Total (N = 214)): 10 (4.7) n (%)
- Treatment-related TEAEs ≥Grade 3: Neutropenia (Total (N = 214)): 18 (8.4) n (%)
- Treatment-related TEAEs ≥Grade 3: Neutrophil count decreased (Total (N = 214)): 16 (2.8) n (%)
- Treatment-related TEAEs ≥Grade 3: Overall (Total (N = 214)): 119 (55.6) n (%)
- Treatment-related TEAEs ≥Grade 3: Peripheral sensory neuropathy (Total (N = 214)): 5 (2.3) n (%)
- Treatment-related TEAEs ≥Grade 3: Pruritus (Total (N = 214)): 5 (2.3) n (%)
- Treatment-related TEAEs ≥Grade 3: Rash erythematous (Total (N = 214)): 6 (2.8) n (%)
- Treatment-related TEAEs ≥Grade 3: Rash maculo-papular (Total (N = 214)): 12 (5.6) n (%)
- Treatment-related grade 3-5 TEAEs (Total (N = 214)): 119 (55.6) n (%)
- Treatment-related serious TEAEs (Total (N = 214)): 39 (18.2) n (%)
- TEAEs leading to death (excluding disease progression): Acute kidney injury [1]: 2 (0.9)
- TEAEs leading to death (excluding disease progression): Acute respiratory failure [1]: 1 (0.5)
- TEAEs leading to death (excluding disease progression): Cardiac disorder [1]: 1 (0.5)
- TEAEs leading to death (excluding disease progression): Metabolic acidosis [1]: 1 (0.5)
- TEAEs leading to death (excluding disease progression): Multiple organ dysfunction syndrome [1]: 1 (0.5)
- TEAEs leading to death (excluding disease progression): Overall [1]: 9 (4.2)
- TEAEs leading to death (excluding disease progression): Pneumonia aspiration [1]: 1 (0.5)
- TEAEs leading to death (excluding disease progression): Sepsis [1]: 2 (0.9)
- Discontinuation due to treatment-related peripheral neuropathy (cohort 1): 6%
- Discontinuation rate due to treatment-related AEs (cohort 1): 12%
- Grade 3 or Grade 4 treatment-related TEAE: anemia (cohort 1): 7%
- Grade 3 or Grade 4 treatment-related TEAE: fatigue (cohort 1): 6%
- Grade 3 or Grade 4 treatment-related TEAE: neutropenia (cohort 1): 8%
- SAE (unrelated and related): cellulitis (cohort 1): 4.8%
- SAE (unrelated and related): urinary tract infection (cohort 1): 4.8%
- cases of Stevens-Johnson Syndrome reported (cohort 1): One
- related SAE: febrile neutropenia (cohort 1): 4%
- subjects with a Grade 3 or Grade 4 treatment-related TEAE (cohort 1): 54%
- deaths assessed as treatment-related (cohort 1, interstitial lung disease): one and One
- Discontinuation due to treatment-related peripheral neuropathy (cohort 2): 4.5%
- Discontinuation rate due to treatment-related AEs (cohort 2): 15.7%
- SAE (unrelated and related): acute kidney injury (cohort 2): 10.1%
- deaths assessed as treatment-related by investigators (cohort 2): Four
- related SAE: acute kidney injury (cohort 2): 3.4%
- subjects with a treatment-related TEAE greater than or equal to Grade 3 (cohort 2): 55.1%
- treatment-related TEAE ≥Grade 3: fatigue (cohort 2): 6.7%
- treatment-related TEAE ≥Grade 3: neutropenia (cohort 2): 9%
- treatment-related TEAE ≥Grade 3: rash maculo-popular (cohort 2): 7.9%
- Hyperglycemia, >Grade 3 [2]: 6%
- Peripheral Neuropathy, >Grade 3 [2]: 8%
- Peripheral Neuropathy, Median Onset [2]: 2.6 months
- Skin Reactions, >Grade 3 [2]: 17%
- Hyperglycemia, Resolution/improvement [3]: 89%
- Peripheral Neuropathy, Resolution/improvement [3]: 54%
- Skin Reactions, Resolution/improvement [3]: 80%
- Hyperglycemia, Any grade [4]: 10%
- Peripheral Neuropathy, Any grade [4]: 56%
- Skin Reactions, Any grade [4]: 61%
- Hyperglycemia, Median Onset [5]: 0.5ª months
- Skin Reactions, Median Onset [5]: 0.5ª months
